Laboratory results reported in publication PMC7347944 (Communications Biology, 2020).

B1: huPrP(23−111) (domain or fragment)
chain: KKRPKPGGWNTGGSRYPGQGSPGGNRYPPQGGGGWGQPHGGGWGQPHGGGWGQPHGGGWGQPHGGGWGQGGGTHSQWNKPSKPKTNMKH
B2: full-length huPrP(23−230) (natural protein)
chain: not shown
B3: huPrP(23−144) (domain or fragment)
chain: KKRPKPGGWNTGGSRYPGQGSPGGNRYPPQGGGGWGQPHGGGWGQPHGGGWGQPHGGGWGQPHGGGWGQGGGTHSQWNKPSKPKTNMKHMAGAAAAGAVVGGLGGYMLGSAMSRPIIHFGSD

The binders below were run against T1, amyloid-β oligomers (UniProt P05067 672-713) (assay: co-sedimentation). Conditions: both partners purified.
T1 construct: also called AβO; Aβ oligomers

Binder | binding result
B1 | binds
B2 | binds
B3 | binds
